Measured values as given in the nanobody polyreactivity screen of Harvey et al. (2022).

Experiment: yeast display, Sf9 membrane polyspecificity reagent, FACS + sequencing; frameworks hold sequencing errors
Summary of the method: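 Nanobodies came from a synthetic yeast display library in Saccharomyces cerevisiae BJ5465, induced with galactose for 36–48 hours and stained for 1 hour at 4 °C with 10% biotinylated, detergent-solubilized Sf9 membrane reagent. Cells were enriched on streptavidin microbeads and then FACS-sorted, with low and high (top ~1%) gates set on anti-HA fluorescence for expression and streptavidin fluorescence for reagent binding. Each polyreactivity label reflects the gate a clone came from. Genes were amplified by colony PCR, sequenced by MiSeq 2 × 250 and filtered by CDR length.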

Sequence | polyreactivity (PSR sort gate)
QVQLVESGGGLVQAGGSLRLSCAASGRTFFANAMGWYRQAPGKERELVAAITSNTGTTYYADSVKGRFTISRDNAKNTVYLQMNSLKPEDTAVYYCAARYTFRYEYWGQGTQVTVSS | high polyreactivity
QVQLVESGGGLVQAGGSLRLSCAASGRTFFDYAMGWYRQAPGKERELVATIRGGGSTNYADSVKGRFTISRDNAKNTVYLQMNSLKPEDTAVYYCAVRRRWYFPQYRSGRSLDYWGQGTQVTVSS | high polyreactivity
QVQLVESGGGLVQAGGSLRLSCAASGRTFFENAMGWYRQAPGKEREFVAAISYNGGSTYYADSVKGRFTISRDNAKNTVYLQMNSLKPEDTAVYYCAAEADGLRYDDNYWGQCTQVTVSS | low polyreactivity
QVQLVESGGGLVQAGGSLRLSCAASGRTFFEYAMGWYRQAPGKERELVAIITNGATTNYADSVKGRFTISRDNAKNTVYLQMNSLKPEDTAVYYCAVAKWQPRRRKYYYWGQGTQVTVSS | high polyreactivity
QVQLVESGGGLVQAGGSLRLSCAASGRTFFGYAMGWYRQAPGKERELVAAINWGGASTYYADSVKGRFTISRDNAKNTVYLQMNSLKPEDTAVYYCAADSVPSRPTYGRYDYWGQGTQVTVSS | low polyreactivity
QVQLVESGGGLVQAGGSLRLSCAASGRTFFKYAMGWYRQAPGKERELVAAIRSGTSTYYADSVKGRFTISRDNAKNTVYLHMNSLKPEDTAVYYCAADWHSKIGKGYDYWGQGTQVTVSS | high polyreactivity
QVQLVESGGGLVQAGGSLRLSCAASGRTFFKYAMGWYRQAPGKERELVAAISSVGSTYYADSVKGRFTISRDNAKNSVYLQMNSLKPEDTAVYYCAARKNRAYGYWGQGTQVTVSS | high polyreactivity
QVQLVESGGGLVQAGGSLRLSCAASGRTFFPNAMGWYRPAPGKERELVAAITWRGGSTYYADSVKGRFTISRDNAKNTVYLQMNSLKPEDTAVYYCAARDNPRWPRYYRGRTYDYWGQGTQVTVSS | high polyreactivity
QVQLVESGGGLVQAGGSLRLSCAASGRTFFPNEMGWYRQAPGKERELVAAITSAGSTNYADSVKGRFTISRDNEKTTVYLQMNSLKPEETAVYYCAAVYPPIHQRYIVDYWGQGTQETVSS | low polyreactivity
QVQLVESGGGLVQAGGSLRLSCAASGRTFFPYAMGWYRQAPGKEREFVAAITKSDYSTYYADSVKGRFTISRDNAKNTVYLQKNSLKPEDNAVYYCNAGDTQIRFYYWGQGTQVTVSS | low polyreactivity
QVQLVESGGGLVQAGGSLRLSCAASGRTFFPYAMGWYRQAPGKERELVAAISLDDDTTYYADSVKGRFTISRDNAKNTVYLQMNSLKPEDTAVYYCAARGTRVRSLYDYWGQGTQVTVSS | high polyreactivity
QVQLVESGGGLVQAGGSLRLSCAASGRTFFPYAMGWYRQAPGKERELVAAITGSGSSTNYADSVKGRFTISRDNAKNTVYLQMTRLKPVDTAVYYCAKPYYRLEDYWGQGTQVTVSS | low polyreactivity
QVQLVESGGGLVQAGGSLRLSCAASGRTFFPYAMGWYRQAPGKERELVARISRTTGRTYYADSVKGRFTISRDNAKNTVFLQMNSLKPEDTAVYYCNAEGFRASGGYVRFEYWGQGTQVTVSS | high polyreactivity
QVQLVESGGGLVQAGGSLRLSCAASGRTFFPYPRGCYRQAPGTDREFFAAITWSGGSTTYADSVKGRFTISRDNAKNTVYLQMNSLKPEDTAVYYCNAGRRRSYSYDYWGQGTQVTVSS | low polyreactivity
QVQLVESGGGLVQAGGSLRLSCAASGRTFFRYAMGWYRPAPGKERELVAAITRSGGSTYYADSVKGRFTISRDNAKNTVYLLMNSLKPEDTAVYYCAAPREAYSRGYDSWGQGTQVTVSS | high polyreactivity
QVQLVESGGGLVQAGGSLRLSCAASGRTFFSNAMGWYRQAPGKERELVAAISNGDNTYFADSVKGRFTISRDNAKNTVYLQMNSLKPEDTAVYYCNTVRRSYWSWSTENSDYWGQGTQVTVSS | low polyreactivity
QVQLVESGGGLVQAGGSLRLSCAASGRTFFTYAMGWYRQAPGKERELVAAITGSGGSTSYADSVKGRFTISRDNAKNTVYLQMNSLKPEDTAVYYCAADWQELEYDYWGQGTQVNVSS | low polyreactivity
QVQLVESGGGLVQAGGSLRLSCAASGRTFFVNAMGGYRQAPGKERELVAAITWSGGSTSYADSVKGRFTISRDKAKNNVSLQLNSLKPEDTAVYYCAAEYYSYSHSYYYYGYEYWGQGTQVNVSS | high polyreactivity
QVQLVESGGGLVQAGGSLRLSCAASGRTFFYNAMGWYRQAPGKERELVAAIDWSGDSTYYADSVKGRFTISRDNAKNTVYLQMNSLKPEDTAVYYCAADGGQVDDSATRLYYWGQGTQVTVSS | high polyreactivity
QVQLVESGGGLVQAGGSLRLSCAASGRTFFYNTMGWYRQAPGKERELVAAISYRGGRTYYADSVKGRFTISRDNAKNTVYLQMNSLKPEDTAVYYCNAYSYGHYYWGQGTQVTVSS | high polyreactivity
QVQLVESGGGLVQAGGSLRLSCAASGRTFFYNTMGWYRQAPGKERELVAAITSSGGRTSYADSVKGRFTISRDNAKNTVYLQMNSLKPEDTAVYYCAALYSYYSLYDDYDYWGQGTQVTVSS | high polyreactivity

Sequence | polyreactivity (PSR sort gate)
QVQLVESGGGLVQAGGSLRLSCAASGRTFFYYAMGWYRPAPGKERELVAGSTNYADSVKGRFTISRDNAKNTVYLQMNSLKPEETAVYYCNADPDDYWGQGTQVTVSS | low polyreactivity
QVQLVESGGGLVQAGGSLRLSCAASGRTFFYYTMGWYRQAPGKEREFVASISWSGASTYYADSVKGRFTISRDNAKNTVYLQMNSLKPEDSAVYYCAAPVTGGAYGYDYWGQGTQVTVSS | high polyreactivity
QVQLVESGGGLVQAGGSLRLSCAASGRTFGANAMGWYRQAPGKERELVAAISSSDDSTYYADSVKGRFTISRDNAKKTDDLQMNSLKPEDTAVYYCAVAVGYTDSPYSYDYWGQGTQVTVSS | low polyreactivity
QVQLVESGGGLVQAGGSLRLSCAASGRTFGANVMGWYRQAPGKERELVARISNGGRTSYADSVKARFTISRDNAKNPVYLQMNSLKPEDTAVYYCAALVVNVFPRYGYWGQGTQVTVSS | high polyreactivity
QVQLVESGGGLVQAGGSLRLSCAASGRTFGAYAMGWYRQAPGKERELVAAIDSGGITYYADSVKGRFTISRDNAKNTVYLQMNSLKPEDTAVYYCAADHRVVTFYEGDYWGQGTQVTVSS | low polyreactivity
QVQLVESGGGLVQAGGSLRLSCAASGRTFGAYAMGWYRQAPGKERELVASISRSGGTTYYADSVKGRFTISRDTAKNTVYLQMNSLKPEDTAVYYCAAQYVRYGHYYWGQATQVTVSS | high polyreactivity
QVQLVESGGGLVQAGGSLRLSCAASGRTFGDNAMGWYRQARGKERELVAAISSGDSTYYADSVKGRFTISRDNAKNSVYLQMNSLKPEDTAVYYCAARWRYTFYVSYYYWGQGTQVTVSS | high polyreactivity
QVQLVESGGGLVQAGGSLRLSCAASGRTFGEYAMGWYRQAPGKERELVAAITGGDSTNYADSVKGRFTISRDNAKNTVYFQMNSLKPEDTAVYYCAAYGVKVLWTLTTYDYWGQGTQVTVSS | low polyreactivity
QVQLVESGGGLVQAGGSLRLSCAASGRTFGFNVMGWYRQAPGKERELVAAISWSGGSTYYADSVKGRFTISRDNAKNTVYLQMNSLKPEDTAVYYCNNRYVHRYGYWGQGTQVTVSS | low polyreactivity
QVQLVESGGGLVQAGGSLRLSCAASGRTFGGNAMGWDRQAPGKERELLAAITGRGGSTYYADSLKGRFTISRDNAKNTVYLQMNSLKPEDTAVYYCNADGSAYIEDGYDYWGQGTQVTVSS | low polyreactivity
QVQLVESGGGLVQAGGSLRLSCAASGRTFGGNAMGWYRQAPGKERELVAAISGRGGSTYYADSVKGRFTISRDNAKNTVYLQMNSLKPEDTAVYYCAARSYLTPEYYYWGQGTQVTVSS | high polyreactivity
QVQLVESGGGLVQAGGSLRLSCAASGRTFGGYAMGWSRQAPGKERELVAAISWSGGRTYYADSVKGRFTISRDNAKNTVYLQMNSLKPEDTAVYYCAATSGRAFKYDYWGQGTQVTVSS | high polyreactivity
QVQLVESGGGLVQAGGSLRLSCAASGRTFGGYAMGWYRQAPGKERELVAAIRWSGGSTYYADSVKGRFTISRDNAKNTVYLQMNSLKPEDTAVYNCAARSHTSADGGRYYYWGQGTQVTVSS | high polyreactivity
QVQLVESGGGLVQAGGSLRLSCAASGRTFGGYAMGWYRQAPGKERELVAAISSSGTRTYYAESVKGRFTISRDNAKNTVYLQMNSLKPEDTAVYYCAAYRVIVWYAMDYWGQGTQVTVSS | high polyreactivity
QVQLVESGGGLVQAGGSLRLSCAASGRTFGGYAMGWYRQAPGKERELVASITRSGGGTYYADSVKGRFTISRDNAKNTVYLQMNSLKPEDTAVYYCAVYFANPYSVYGLGVYSTLNYWGQGTQVTVSS | low polyreactivity
QVQLVESGGGLVQAGGSLRLSCAASGRTFGGYVMGWYRQAPGKESELVATITDSGGSTHYADSVKGRFTISRDNAKNTVYLQMNSLKPEDTAVYYCARRRSYRYPSEYNYWGQGTQVTVSS | high polyreactivity
QVQLVESGGGLVQAGGSLRLSCAASGRTFGINAMGWYRQAPGKERELVARIRKTVGSTYYADSVKGRFTISRDNAKNTVYLQMNSLKPEDTAVYYCAADLRYGYLYPYDSWGQGTQVTVSS | high polyreactivity
QVQLVESGGGLVQAGGSLRLSCAASGRTFGIYAMGWYRQAPGKERELVAAISSDASTSYADSVKGRFTISRDNAKNTVYLQMNSLKPEDTAVYYCAADPGPYYDWGYDYWGQGTQVTVSS | low polyreactivity
QVQLVESGGGLVQAGGSLRLSCAASGRTFGIYAMGWYRQAPGKERELVAAITGRGGSTHYADSVKGRFTISRDNAKNTVYLQMNSLKPEDTAVYYCNARWWVIRPYQRHDYWGQGTQVTVSS | low polyreactivity
QVQLVESGGGLVQAGGSLRLSCAASGRTFGIYAMGWYRQATGKERELVAGITWTGGSTYYADSVKGRFTISRDNAKNTVYLQMNSLKPEDTAVYYCAADFYVLQFYGLDYGYWGQGTQVTVSS | low polyreactivity
